[ ]: non-standard residue; d: D form. The star is where a group is joined. Biotin = O=C1N[C@H]2[C@H](CS[C@H]2CCCCC(=O)*)N1; Hyp = O=C(O)[C@@H]1C[C@@H](O)CN1
Assays:
HA-VHL30 [1] = assay: In vitro pVHL-HIFα binding (pulldown) assay, VHL WT; parameters: species or system human; details: 1.2 μg biotinylated peptide on streptavidin agarose beads, IVTT HA-VHL30, EBC buffer, two hours at 4 °C, anti-HA immunoblot, qualitative
Description: The in vitro pVHL-HIFα binding assay was performed as previously described. HA-VHL30 was expressed in an IVTT rabbit reticulocyte lysate system (Promega, Cat. No. L1170) and incubated with 1.2 μg of biotinylated HIFαOH peptide immobilized on streptavidin agarose beads in 500 μL of EBC buffer (50 mM Tris-HCl pH 8.0, 120 mM NaCl, 0.5% (v/v) NP-40) for two hours at 4 °C. To perform a competition binding assay, 1.8 μg of biotinylated HIFαOH peptide immobilized on streptavidin agarose beads competed with 1 μg of acetylated HIFαOH peptide. Following incubation, beads were washed 4x with NETN buffer (20 mM Tris-HCl pH 8.0, 100 mM NaCl, 1 mM EDTA, 0.5% (v/v) NP-40). Biotinylated peptide was pulled down via streptavidin agarose beads and protein was eluted by boiling beads in sample buffer. Protein levels of HA-VHL30 were determined by immunoblotting.

[2] = biological target: T1, VHL-elongin B-elongin C (VBC) complex (Homo sapiens, UniProt P40337+Q15369+Q15370); assay: Biolayer interferometry, VBC WT binding to immobilized HIFα peptide; details: VHL/HIFα binding experiments, Fig. 2b (pulldown) and Fig. 2d (BLI), in words
T1 construct: made in house
Description: The binding affinities of VBC to hydroxylated HIFα peptide was measured by biolayer interferometry using the BLItz system (Pall ForteBio). A 50 μg/mL solution of biotinylated HIFα peptide was prepared in kinetics buffer (20 mM HEPES pH 7.4, 200 mM NaCl, 1 mM DTT, 0.02% (v/v) Tween-20, and 0.5% (w/v) BSA) and immobilized onto streptavidin (SA)-coated biolayer interferometry (BLI) biosensors (Pall ForteBio, Cat. No. 18–5019) over 120 s. Multiple concentrations of purified VBC complex were diluted in kinetics buffer and allowed to associate with immobilized peptide over 120 s. Subsequently, the SA-BLI probe was immersed into kinetics buffer for 120 s to allow for dissociation. Both protein and buffer were chilled on ice immediately before use. The data were analyzed, step corrected, reference corrected, and fit to a global 1:1 binding model. Kd, ka, and kd were calculated using the BLItz Pro software. All measurements were performed in triplicate with independently purified recombinant protein.

HA-VHL30 [3] = assay: In vitro hydroxylation and co-immunoprecipitation of HIFα ODD with VHL WT; format: binding, human; details: IVTT 3xFLAG-HIFα ODD hydroxylated with HIS6-PHD2 (181–426) for 1 h, anti-FLAG IP, anti-HA immunoblot, compared with the WT ODD, qualitative
Description: (§1) 3xFLAG-HIFα ODD was expressed via the rabbit reticulocyte lysate system. HIFα ODD was incubated with 15 μg/μL HIS6-PHD2 (181–426) in 200 μL of 40 mM HEPES pH 7.4, 80 mM KCl, 5 mM a-ketoglutarate, 2 mM ascorbic acid, 100 μM FeCl2 tetrahydrate solution at 30 °C for 1 h. Following hydroxylation, 3xFLAG-HIFα was incubated with IVTT VHL30 in 500 μL of wash buffer (40 mM HEPES pH 7.4, 80 mM KCl, 0.05% (v/v) Tween-20, 250 μM EDTA, 1 mM DTT) supplemented with protease inhibitors for 2 h at 4 °C. Following binding, 3xFLAG-HIFα ODD was immunoprecipitated with anti-FLAG antibody immobilized on protein A beads. Protein was eluted by boiling beads in sample buffer. Protein levels of HA-VHL30 were determined by immunoblotting.

VHL F91Y = assay: In vitro hydroxylation and co-immunoprecipitation of HIFα ODD with VHL F91Y; format: binding, human; details: IVTT 3xFLAG-HIF1α ODD hydroxylated with HIS6-PHD2, anti-FLAG IP, anti-HA immunoblot, qualitative
Description: as §1

[4] = biological target: VHL-elongin B-elongin C (VBC) complex, wild type, P40337;Q15370;Q15369; assay: biolayer interferometry (BLI); details: chain shown with the change;, read off a plot

T1 sequence (P40337 54-213 limits assumed): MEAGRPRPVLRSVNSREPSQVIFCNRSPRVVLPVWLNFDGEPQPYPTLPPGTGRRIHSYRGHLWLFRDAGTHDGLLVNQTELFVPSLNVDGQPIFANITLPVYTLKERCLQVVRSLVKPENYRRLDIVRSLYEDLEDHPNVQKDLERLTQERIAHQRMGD
T1 sequence (Q15370 whole entry partner): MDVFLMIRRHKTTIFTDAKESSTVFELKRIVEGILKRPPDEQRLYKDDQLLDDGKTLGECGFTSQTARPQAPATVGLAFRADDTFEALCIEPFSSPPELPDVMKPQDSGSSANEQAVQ
T1 sequence (Q15369 17-112 partner limits assumed): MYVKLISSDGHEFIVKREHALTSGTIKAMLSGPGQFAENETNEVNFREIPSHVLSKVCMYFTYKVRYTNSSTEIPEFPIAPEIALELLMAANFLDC

“Bio-HIF1αOH(M561A): hydroxylated HIF1α peptide, Met561 substituted with alanine (Biotin-DLDLEALA[Hyp]YIPMDDDFQ-NH2; SMILES CC[C@H](C)[C@H](NC(=O)[C@H](Cc1ccc(O)cc1)NC(=O)[C@@H]1C[C@@H](O)CN1C(=O)[C@H](C)NC(=O)[C@H](CC(C)C)NC(=O)[C@H](C)NC(=O)[C@H](CCC(=O)O)NC(=O)[C@H](CC(C)C)NC(=O)[C@H](CC(=O)O)NC(=O)[C@H](CC(C)C)NC(=O)[C@H](CC(=O)O)NC(=O)CCCC[C@@H]1SC[C@@H]2NC(=O)N[C@@H]21)C(=O)N1CCC[C@H]1C(=O)N[C@@H](CCSC)C(=O)N[C@@H](CC(=O)O)C(=O)N[C@@H](CC(=O)O)C(=O)N[C@@H](CC(=O)O)C(=O)N[C@@H](Cc1ccccc1)C(=O)N[C@@H](CCC(N)=O)C(N)=O)” was tested, and the “levels of HA-VHL pulled down by immobilized biotinylated HIFαOH peptide (affinity for VHL)” value (shortened to “levels of HA-VHL pulled down”) (HA-VHL30 [1]) was “decreased affinity for pVHL”.

“HIF1αOH(D570delinsGE): hydroxylated HIF1α peptide with insertion of Glyn+6 to mimic HIF2α (Biotin-DLDLEMLA[Hyp]YIPMDGDDFQ-NH2; SMILES CC[C@H](C)[C@H](NC(=O)[C@H](Cc1ccc(O)cc1)NC(=O)[C@@H]1C[C@@H](O)CN1C(=O)[C@H](C)NC(=O)[C@H](CC(C)C)NC(=O)[C@H](CCSC)NC(=O)[C@H](CCC(=O)O)NC(=O)[C@H](CC(C)C)NC(=O)[C@H](CC(=O)O)NC(=O)[C@H](CC(C)C)NC(=O)[C@H](CC(=O)O)NC(=O)CCCC[C@@H]1SC[C@@H]2NC(=O)N[C@@H]21)C(=O)N1CCC[C@H]1C(=O)N[C@@H](CCSC)C(=O)N[C@@H](CC(=O)O)C(=O)NCC(=O)N[C@@H](CC(=O)O)C(=O)N[C@@H](CC(=O)O)C(=O)N[C@@H](Cc1ccccc1)C(=O)N[C@@H](CCC(N)=O)C(N)=O)” was tested, and the VHL/HIFα complex stability [2] was “does not overtly modulate complex stability”.

In the case of “HIF2α T528M: hydroxylated HIF2α peptide with T528M substitution (Biotin-ELDLEMLA[Hyp]YIPMDGEDFQ-NH2; SMILES CC[C@H](C)[C@H](NC(=O)[C@H](Cc1ccc(O)cc1)NC(=O)[C@@H]1C[C@@H](O)CN1C(=O)[C@H](C)NC(=O)[C@H](CC(C)C)NC(=O)[C@H](CCSC)NC(=O)[C@H](CCC(=O)O)NC(=O)[C@H](CC(C)C)NC(=O)[C@H](CC(=O)O)NC(=O)[C@H](CC(C)C)NC(=O)[C@H](CCC(=O)O)NC(=O)CCCC[C@@H]1SC[C@@H]2NC(=O)N[C@@H]21)C(=O)N1CCC[C@H]1C(=O)N[C@@H](CCSC)C(=O)N[C@@H](CC(=O)O)C(=O)NCC(=O)N[C@@H](CCC(=O)O)C(=O)N[C@@H](CC(=O)O)C(=O)N[C@@H](Cc1ccccc1)C(=O)N[C@@H](CCC(N)=O)C(N)=O)”, the “levels of HA-VHL pulled down” value (HA-VHL30 [1]) is reported as “increased affinity for VHL”.

For “HIF2αOH(∆G537): hydroxylated HIF2α peptide with deletion of G537 (Biotin-ELDLETLA[Hyp]YIPMDEDFQ-NH2; SMILES CC[C@H](C)[C@H](NC(=O)[C@H](Cc1ccc(O)cc1)NC(=O)[C@@H]1C[C@@H](O)CN1C(=O)[C@H](C)NC(=O)[C@H](CC(C)C)NC(=O)[C@@H](NC(=O)[C@H](CCC(=O)O)NC(=O)[C@H](CC(C)C)NC(=O)[C@H](CC(=O)O)NC(=O)[C@H](CC(C)C)NC(=O)[C@H](CCC(=O)O)NC(=O)CCCC[C@@H]1SC[C@@H]2NC(=O)N[C@@H]21)[C@@H](C)O)C(=O)N1CCC[C@H]1C(=O)N[C@@H](CCSC)C(=O)N[C@@H](CC(=O)O)C(=O)N[C@@H](CCC(=O)O)C(=O)N[C@@H](CC(=O)O)C(=O)N[C@@H](Cc1ccccc1)C(=O)N[C@@H](CCC(N)=O)C(N)=O)”, the “levels of HA-VHL pulled down” value (HA-VHL30 [1]) was “minor decrease in affinity for VHL”.

With “MetO2: hydroxylated HIF1α peptide, Met561 completely oxidized to methionine sulfone (MetO2)” the “levels of HA-VHL pulled down” value (HA-VHL30 [1]) was “further decrease in VHL affinity”.

With “NLE-substituted HIF1α: hydroxylated HIF1α peptide, Met561 substituted with norleucine” the “levels of HA-VHL pulled down” value (HA-VHL30 [1]) was “did not affect the affinity”.

B1: HIF1α ODD M561T: IVTT 3xFLAG-HIF1α ODD (387–581) with M561T substitution (protein)
chain: FDKLKKEPDALTLLAPAAGDTIISLDFGSNDTETDDQQLEEVPLYNDVMLPSPNEKLQNINLAMSPLPTAETPKPLRSSADPALNQEVALKLEPNPESLELSFTMPQIQDQTPSPSDGSTRQSSPEPNSPSEYCFYVDSDMVNEFKLELVEKLFAEDTEAKNPFSTQDTDLDLETLAPYIPMDDDFQLRSFDQLS
modifications: hydroxylated in vitro by HIS6-PHD2 (181–426) for one hour before the binding; left off: 3xFLAG, end not stated, kept
notes: IVTT 3xFLAG-HIF1α ODD (387–581) with M561T substitution
With B1 the “affinity of HIFα ODD protein for VHL (HA-VHL co-immunoprecipitated)” value (HA-VHL30 [3]) was “decreased affinity” and the “HIFα ODD bound by VHL F91Y, compared with VHL WT” value (VHL F91Y) was “bound less”.

B2: HIF1αODD WT: IVTT 3xFLAG-tagged HIF1α oxygen-dependent degradation domain (387–581), wild type (protein)
chain: FDKLKKEPDALTLLAPAAGDTIISLDFGSNDTETDDQQLEEVPLYNDVMLPSPNEKLQNINLAMSPLPTAETPKPLRSSADPALNQEVALKLEPNPESLELSFTMPQIQDQTPSPSDGSTRQSSPEPNSPSEYCFYVDSDMVNEFKLELVEKLFAEDTEAKNPFSTQDTDLDLEMLAPYIPMDDDFQLRSFDQLS
modifications: hydroxylated in vitro by HIS6-PHD2 (181–426) for one hour before the binding; left off: 3xFLAG, end not stated, kept
notes: IVTT 3xFLAG-tagged HIF1α oxygen-dependent degradation domain (387–581), wild type
B2 was tested, and the “HIFα ODD bound by VHL F91Y, compared with VHL WT” value (VHL F91Y) was “bound less”.

B3: HIF2α ODD T528M: IVTT 3xFLAG-HIF2α(390–554) ODD protein with T528M substitution (protein, UniProt Q99814 390-554, looked up, fragment T528M)
chain: FTKLKEEPEELAQLAPTPGDAIISLDFGNQNFEESSAYGKAILPPSQPWATELRSHSTQSEAGSLPAFTVPQAAAPGSTTPSATSSSSSCSTPNSPEDYYTSLDNDLKIEVIEKLFAMDTEAKDQCSTQTDFNELDLEMLAPYIPMDGEDFQLSPICPEERLLAE
modifications: ODD 3xFLAG tag
notes: IVTT 3xFLAG-HIF2α(390–554) ODD protein with T528M substitution
In the case of B3, the “affinity of HIFα ODD protein for VHL (HA-VHL co-immunoprecipitated)” value (HA-VHL30 [3]) is reported as “increased the affinity”.

For ELDLETLAPYIPMDEDFQ [hydroxylated HIF2α peptide (523–541), biotinylated G537del], the koff ([4]; parent: est. 0.0075 s-1) was 0.011 s⁻¹ and the koff ([4]; parent: est. 0.0078) was 0.011 s⁻¹.

Reference: PMC6650433, “Evolution of metazoan oxygen-sensing involved a conserved divergence of VHL affinity for HIF1α and HIF2α” (Nature Communications, 2019)
